From publication PMC8511049, “hSSB2 (NABP1) is required for the recruitment of RPA during the cellular response to DNA UV damage”

How the values were obtained:
[1] = target: T1, hSSB2-OB (NABP1 OB domain) (human, UniProt Q96AH0 1-132); assay: SPR competition; competes with immobilised biotinylated wild-type ssDNA; 2 mM MgCl2; SPR: 20 mM Tris pH 7.0, 50 mM NaCl, 2 mM MgCl2, 0.01% P20, 2 mM DTT; EMSA: 20 mM Tris pH 7.5, 100 mM NaCl, 1 mM DTT, 100 µg/mL BSA, 37 °C; agarose shift: 10 mM; conditions: protein: recombinant; tags: GST tag (pGEX-6P) removed by HRV3C protease; blunt, central 2-nt mismatch (TT opposite CC; S3 positions 11-12)
[2] = target: T1, hSSB2-OB (NABP1 OB domain); assay: SPR competition; almost same affinity as undamaged GATTGC; value only in figure; 2 mM MgCl2; SPR: 20 mM Tris pH 7.0, 50 mM NaCl, 2 mM MgCl2, 0.01% P20, 2 mM DTT; EMSA: 20 mM Tris pH 7.5, 100 mM NaCl, 1 mM DTT, 100 µg/mL BSA, 37 °C; agarose shift: 10 mM; conditions: protein: recombinant; tags: GST tag (pGEX-6P) removed by HRV3C protease; single strand
[3] = target: T1, hSSB2-OB (NABP1 OB domain); assay: SPR competition; competes with immobilised biotinylated wild-type ssDNA; value only in figure; 2 mM MgCl2; SPR: 20 mM Tris pH 7.0, 50 mM NaCl, 2 mM MgCl2, 0.01% P20, 2 mM DTT; EMSA: 20 mM Tris pH 7.5, 100 mM NaCl, 1 mM DTT, 100 µg/mL BSA, 37 °C; agarose shift: 10 mM; conditions: protein: recombinant; tags: GST tag (pGEX-6P) removed by HRV3C protease; single strand
[4] = target: T1, hSSB2-OB (NABP1 OB domain); assay: EMSA; SPR: 20 mM Tris pH 7.0, 50 mM NaCl, 2 mM MgCl2, 0.01% P20, 2 mM DTT; EMSA: 20 mM Tris pH 7.5, 100 mM NaCl, 1 mM DTT, 100 µg/mL BSA, 37 °C; agarose shift: 10 mM; conditions: protein: recombinant, tags: GST tag (pGEX-6P) removed by HRV3C protease, label: 32P

T1 sequence (Q96AH0 1-132): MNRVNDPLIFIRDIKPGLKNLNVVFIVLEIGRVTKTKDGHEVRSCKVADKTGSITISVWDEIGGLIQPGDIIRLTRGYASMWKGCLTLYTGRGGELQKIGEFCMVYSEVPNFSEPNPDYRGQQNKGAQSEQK

B1: 23mer duplex with 2-nt bubble (dsDNA)
DNA 1: CGAACGATCATTACTAGCTCCAA
DNA 2: TTGGAGCTAGTCCTGATCGTTCG
Work on B1 yielded a Ki [1] of 1000 nM.

B2: 6mer GATTGC with CPD (ssDNA)
DNA: GATTGC
modifications: cyclobutane pyrimidine dimer between T3 and T4
B2: binds [2].

B3: 6mer GATTGC wild-type (ssDNA)
DNA: GATTGC
B3: binds [3].

B4: 50mer ssDNA (EMSA) (ssDNA)
DNA: CCTCGAGGGATCCGTCCTAGCAAGCCGCTGCTACCGGAAGCTTCTGGACC
B4: binds ([4]; single strand).

B5: 50 bp dsDNA (EMSA) (dsDNA)
DNA 1: CCTCGAGGGATCCGTCCTAGCAAGCCGCTGCTACCGGAAGCTTCTGGACC
DNA 2: GGTCCAGAAGCTTCCGGTAGCAGCGGCTTGCTAGGACGGATCCCTCGAGG
B5: no binding ([4]; blunt).
